Consider one molecule from patent US20230416341A1, “IMPROVED THROMBIN INHIBITORS FOR TREATMENT OF THROMBOEMBOLIC CONDITIONS” (priority 2020, published 2023).

In the test the test system is occluded carotid artery. The test is described as follows: Experimental thrombosis and thrombolysis of the carotid artery (electrolytic injury, rtPA/anticoagulant combination, vessel recanalization). The format is in vivo, mice. The following applies: rtPA therapy alone, 10 mg/kg bolus/infusion, blood flow assessed for 60 minutes. How it is done: Thrombosis: Electrolytic injury was used to generate in situ thrombotic occlusion of the carotid artery in anaesthetised mice, as described (Jackson et al, Nature Medicine 2005; Schoenwaelder et al, J Biol Chem, 2007). Baseline blood flow through the carotid artery was measured using an ultrasound Doppler flow probe. The flow probe was removed, and vessel injury was delivered in the presence of stasis, through placement of a distal haemostatic clamp (Micro Serrefine Clamp, 18055-05, Fine Science Tools, Canada). Delivery of an electrical current (8 mA or 28 mA for 3 minutes) was achieved using a lesion making device (Model 53500, Ugo Basile, Comerio, VA, Italy), with the injury site flushed constantly with saline to prevent tissue dehydration. […]
Thrombolysis: Intravenous thrombolysis was commenced 15 minutes following stable thrombotic vessel occlusion, as monitored with the flow probe. rtPA was administered via jugular catheter using a Harvard Apparatus syringe pump (Cat #704504; Pump Elite 11 I/W Single Syringe Pump, NSW, Australia). […] Carotid artery blood flow was assessed for 60 minutes following commencement of treatment. […] Following thrombolytic therapy, return of carotid artery blood flow was assessed using the mean blood flow recorded with LabChart software (version 7.0, ADInstruments, NSW, Australia). […]

B1: rtPA: thrombolytic agent recombinant tissue plasminogen activator (protein, UniProt P00750 36-562, looked up)
Tissue-type plasminogen …: SYQVICRDEKTQMIYQQHQSWLRPVLRSNRVEYCWCNSGRAQCHSVPVKSCSEPRCFNGGTCQQALYFSDFVCQCPEGFAGKCCEIDTRATCYEDQGISYRGTWSTAESGAECTNWNSSALAQKPYSGRRPDAIRLGLGNHNYCRNPDRDSKPWCYVFKAGKYSSEFCSTPACSEGNSDCYFGNGSAYRGTHSLTESGASCLPWNSMILIGKVYTAQNPSAQALGLGKHNYCRNPDGDAKPWCHVLKNRRLTWEYCDVPSCSTCGLRQYSQPQFRIKGGLFADIASHPWQAAIFAKHRRSPGERFLCGGILISSCWILSAAHCFQERFPPHHLTVILGRTYRVVPGEEEQKFEVEKYIVHKEFDDDTYDNDIALLQLKSDSSRCAQESSVVRTVCLPPADLQLPDWTECELSGYGKHEALSPFYSERLKEAHVRLYPSSRCTSQHLLNRTVTDNMLCAGDTRSGGPQANLHDACQGDSGGPLVCLNDGRMTLVGIISWGLGCGQKDVPGVYTKVTNYLDWIRDNMRP
For the molecule B1, the vessel recanalization entry is on record as “remains occluded”.
